Data as given in patent US20090252683A1 (Amgen, published 2009).

B1: EGFR HL × SEQ ID NO. 170 (bispecific antibody)
chain: QVQLQQSGPDLVKPGASVKMSCKASGHTFTDCVIIWVKQRAGQGLEWIGQIYPGTGRSYYNEIFKGKATLTADKSSNTVHIQLSSLTSEDSAVYFCALSTLIHGTWFSYWGQGTLVTVSSGGGGSGGGGSGGGGSDIVLTQSPASLPVSLGQRATISCRASQSVSSSTYSYIHWYQQKPGQPPKLLITYASNLESGVPARFSGSGSGTDFTLDIHPVEEDDSSTYYCQHSWEIPFTFGSGTKLEIKSGGGGSEVQLVESGGGLVQPGGSLKLSCAASGFTFNTYAMNWVRQAPGKGLEWVARIRSKYNNYATYYADSVKDRFTISRDDSKNTAYLQMNNLKTEDTAVYYCVRHGNFGNSYVSWFAYWGQGTLVTVSSGGGGSGGGGSGGGGSQTVVTQEPSLTVSPGGTVTLTCRSSTGAVTTSNYANWVQQKPGQAPRGLIGGTNKRAPGTPARFSGSLLGGKAALTLSGVQPEDEAEYYCALWYSNLWVFGGGTKLTVLHHHHHH
notes: the appendix prints the entry with HHHHHH and then *VD (stop and vector residues) at its end
B2: EGFR LH × SEQ ID NO. 170 (bispecific antibody)
chain: DIVLTQSPASLPVSLGQRATISCRASQSVSSSTYSYIHWYQQKPGQPPKLLITYASNLESGVPARFSGSGSGTDFTLDIHPVEEDDSSTYYCQHSWEIPFTFGSGTKLEIKGGGGSGGGGSGGGGSQVQLQQSGPDLVKPGASVKMSCKASGHTFTDCVIIWVKQRAGQGLEWIGQIYPGTGRSYYNEIFKGKATLTADKSSNTVHIQLSSLTSEDSAVYFCALSTLIHGTWFSYWGQGTLVTVSSGGGGSEVQLVESGGGLVQPGGSLKLSCAASGFTFNTYAMNWVRQAPGKGLEWVARIRSKYNNYATYYADSVKDRFTISRDDSKNTAYLQMNNLKTEDTAVYYCVRHGNFGNSYVSWFAYWGQGTLVTVSSGGGGSGGGGSGGGGSQTVVTQEPSLTVSPGGTVTLTCRSSTGAVTTSNYANWVQQKPGQAPRGLIGGTNKRAPGTPARFSGSLLGGKAALTLSGVQPEDEAEYYCALWYSNLWVFGGGTKLTVLHHHHHH
notes: the appendix prints the entry with HHHHHH and then *VD at its end
B3: EGFR HL × SEQ ID NO. 194 (bispecific antibody)
chain: QVQLQQSGPDLVKPGASVKMSCKASGHTFTDCVIIWVKQRAGQGLEWIGQIYPGTGRSYYNEIFKGKATLTADKSSNTVHIQLSSLTSEDSAVYFCALSTLIHGTWFSYWGQGTLVTVSSGGGGSGGGGSGGGGSDIVLTQSPASLPVSLGQRATISCRASQSVSSSTYSYIHWYQQKPGQPPKLLITYASNLESGVPARFSGSGSGTDFTLDIHPVEEDDSSTYYCQHSWEIPFTFGSGTKLEIKSGGGGSQTVVTQEPSLTVSPGGTVTLTCRSSTGAVTTSNYANWVQQKPGQAPRGLIGGTNKRAPGTPARFSGSLLGGKAALTLSGVQPEDEAEYYCALWYSNLWVFGGGTKLTVLGGGGSGGGGSGGGGSEVQLVESGGGLVQPGGSLKLSCAASGFTFNTYAMNWVRQAPGKGLEWVARIRSKYNNYATYYADSVKDRFTISRDDSKNTAYLQMNNLKTEDTAVYYCVRHGNFGNSYVSWFAYWGQGTLVTVSSHHHHHH
notes: as for B2
B4: EGFR LH × SEQ ID NO. 194 (bispecific antibody)
chain: DIVLTQSPASLPVSLGQRATISCRASQSVSSSTYSYIHWYQQKPGQPPKLLITYASNLESGVPARFSGSGSGTDFTLDIHPVEEDDSSTYYCQHSWEIPFTFGSGTKLEIKGGGGSGGGGSGGGGSQVQLQQSGPDLVKPGASVKMSCKASGHTFTDCVIIWVKQRAGQGLEWIGQIYPGTGRSYYNEIFKGKATLTADKSSNTVHIQLSSLTSEDSAVYFCALSTLIHGTWFSYWGQGTLVTVSSSGGGGSQTVVTQEPSLTVSPGGTVTLTCRSSTGAVTTSNYANWVQQKPGQAPRGLIGGTNKRAPGTPARFSGSLLGGKAALTLSGVQPEDEAEYYCALWYSNLWVFGGGTKLTVLGGGGSGGGGSGGGGSEVQLVESGGGLVQPGGSLKLSCAASGFTFNTYAMNWVRQAPGKGLEWVARIRSKYNNYATYYADSVKDRFTISRDDSKNTAYLQMNNLKTEDTAVYYCVRHGNFGNSYVSWFAYWGQGTLVTVSSHHHHHH
notes: as for B2
B5: SEQ ID NO. 170 × EGFR HL (bispecific antibody)
chain: EVQLVESGGGLVQPGGSLKLSCAASGFTFNTYAMNWVRQAPGKGLEWVARIRSKYNNYATYYADSVKDRFTISRDDSKNTAYLQMNNLKTEDTAVYYCVRHGNFGNSYVSWFAYWGQGTLVTVSSGGGGSGGGGSGGGGSQTVVTQEPSLTVSPGGTVTLTCRSSTGAVTTSNYANWVQQKPGQAPRGLIGGTNKRAPGTPARFSGSLLGGKAALTLSGVQPEDEAEYYCALWYSNLWVFGGGTKLTVLSGGGGSQVQLQQSGPDLVKPGASVKMSCKASGHTFTDCVIIWVKQRAGQGLEWIGQIYPGTGRSYYNEIFKGKATLTADKSSNTVHIQLSSLTSEDSAVYFCALSTLIHGTWFSYWGQGTLVTVSSGGGGSGGGGSGGGGSDIVLTQSPASLPVSLGQRATISCRASQSVSSSTYSYIHWYQQKPGQPPKLLITYASNLESGVPARFSGSGSGTDFTLDIHPVEEDDSSTYYCQHSWEIPFTFGSGTKLEIKHHHHHH
notes: as for B2
B6: SEQ ID NO. 194 × EGFR HL (bispecific antibody)
chain: QTVVTQEPSLTVSPGGTVTLTCRSSTGAVTTSNYANWVQQKPGQAPRGLIGGTNKRAPGTPARFSGSLLGGKAALTLSGVQPEDEAEYYCALWYSNLWVFGGGTKLTVLGGGGSGGGGSGGGGSEVQLVESGGGLVQPGGSLKLSCAASGFTFNTYAMNWVRQAPGKGLEWVARIRSKYNNYATYYADSVKDRFTISRDDSKNTAYLQMNNLKTEDTAVYYCVRHGNFGNSYVSWFAYWGQGTLVTVSSSGGGGSQVQLQQSGPDLVKPGASVKMSCKASGHTFTDCVIIWVKQRAGQGLEWIGQIYPGTGRSYYNEIFKGKATLTADKSSNTVHIQLSSLTSEDSAVYFCALSTLIHGTWFSYWGQGTLVTVSSGGGGSGGGGSGGGGSDIVLTQSPASLPVSLGQRATISCRASQSVSSSTYSYIHWYQQKPGQPPKLLITYASNLESGVPARFSGSGSGTDFTLDIHPVEEDDSSTYYCQHSWEIPFTFGSGTKLEIKHHHHHH
notes: as for B2
B7: SEQ ID NO. 170 × EGFR LH (bispecific antibody)
chain: EVQLVESGGGLVQPGGSLKLSCAASGFTFNTYAMNWVRQAPGKGLEWVARIRSKYNNYATYYADSVKDRFTISRDDSKNTAYLQMNNLKTEDTAVYYCVRHGNFGNSYVSWFAYWGQGTLVTVSSGGGGSGGGGSGGGGSQTVVTQEPSLTVSPGGTVTLTCRSSTGAVTTSNYANWVQQKPGQAPRGLIGGTNKRAPGTPARFSGSLLGGKAALTLSGVQPEDEAEYYCALWYSNLWVFGGGTKLTVLSGGGGSDIVLTQSPASLPVSLGQRATISCRASQSVSSSTYSYIHWYQQKPGQPPKLLITYASNLESGVPARFSGSGSGTDFTLDIHPVEEDDSSTYYCQHSWEIPFTFGSGTKLEIKGGGGSGGGGSGGGGSQVQLQQSGPDLVKPGASVKMSCKASGHTFTDCVIIWVKQRAGQGLEWIGQIYPGTGRSYYNEIFKGKATLTADKSSNTVHIQLSSLTSEDSAVYFCALSTLIHGTWFSYWGQGTLVTVSSHHHHHH
notes: 184 as EGFR LH; the appendix heads it EGFR HL; ends with HHHHHH and *VD in the appendix
B8: SEQ ID NO. 194 × EGFR LH (bispecific antibody)
chain: QTVVTQEPSLTVSPGGTVTLTCRSSTGAVTTSNYANWVQQKPGQAPRGLIGGTNKRAPGTPARFSGSLLGGKAALTLSGVQPEDEAEYYCALWYSNLWVFGGGTKLTVLGGGGSGGGGSGGGGSEVQLVESGGGLVQPGGSLKLSCAASGFTFNTYAMNWVRQAPGKGLEWVARIRSKYNNYATYYADSVKDRFTISRDDSKNTAYLQMNNLKTEDTAVYYCVRHGNFGNSYVSWFAYWGQGTLVTVSSSGGGGSDIVLTQSPASLPVSLGQRATISCRASQSVSSSTYSYIHWYQQKPGQPPKLLITYASNLESGVPARFSGSGSGTDFTLDIHPVEEDDSSTYYCQHSWEIPFTFGSGTKLEIKGGGGSGGGGSGGGGSQVQLQQSGPDLVKPGASVKMSCKASGHTFTDCVIIWVKQRAGQGLEWIGQIYPGTGRSYYNEIFKGKATLTADKSSNTVHIQLSSLTSEDSAVYFCALSTLIHGTWFSYWGQGTLVTVSSHHHHHH
notes: 186 as EGFR LH; the appendix heads it EGFR HL; ends with HHHHHH and *VD in the appendix

Target: T1, human EGFR on A431 cells (human, UniProt P00533 25-1210)
T1 construct: whole, on cells
Assay: FACS, A431 cells, 1 µg/ml purified protein, anti-His detection
Procedure: In order to test the functionality of the cross-species specific bispecific antibody constructs with regard to binding capability to human and cynomolgus EGFR and CD3, respectively, a FACS analysis was performed. For this purpose the EGFR positive epidermoid carcinoma A431 cells (ATCC, CRL-1555) and CD3 positive human T cell leukemia cell line HPB-ALL (DSMZ, Braunschweig, ACC483) were used to check the binding to human antigens. The binding reactivity to cynomolgus antigens was tested by using the generated cynomolgus EGFR transfectants described in Example 20 and cynomolgus PBMCs which were obtained by Ficoll density gradient centrifugation. 200,000 cells of the respective cell population were incubated for 30 min on ice with 50 μl of the purified protein of the cross-species specific bispecific antibody constructs (1 μg/ml). The cells were washed twice in PBS and binding of the construct was detected with an unlabeled murine Penta His antibody (diluted 1:20 in 50 μl PBS with 2% FCS; Qiagen; Order No. 34660). After washing, bound anti His antibodies were detected with an Fc gamma-specific antibody (Dianova) conjugated to phycoerythrin, diluted 1:100 in 50 μl PBS with 2% FCS. Fresh culture medium was used as a negative control.
Cells were analyzed by flow cytometry on a FACS-Calibur apparatus (Becton Dickinson, Heidelberg). FACS staining and measuring of the fluorescence intensity were performed as described in Current Protocols in Immunology (Coligan, Kruisbeek, Margulies, Shevach and Strober, Wiley-Interscience, 2002).

Binding result, binds:
B1, B2, B3, B4, B5, B6, B7, B8
